Laboratory results from patent publication US20040176568A1 (GENERAL HOSPITAL, published 2004).
Read-outs that look alike come from different tables or passages of the source. Values belong to the molecule of their own block, whether it stands above or below them. No end group written: not given here.

Tests used:
[1] = biological target: T1, human PTH-1 receptor (human, UniProt Q03431 27-593); test: cell-based or functional assay
T1 sequence (looked up): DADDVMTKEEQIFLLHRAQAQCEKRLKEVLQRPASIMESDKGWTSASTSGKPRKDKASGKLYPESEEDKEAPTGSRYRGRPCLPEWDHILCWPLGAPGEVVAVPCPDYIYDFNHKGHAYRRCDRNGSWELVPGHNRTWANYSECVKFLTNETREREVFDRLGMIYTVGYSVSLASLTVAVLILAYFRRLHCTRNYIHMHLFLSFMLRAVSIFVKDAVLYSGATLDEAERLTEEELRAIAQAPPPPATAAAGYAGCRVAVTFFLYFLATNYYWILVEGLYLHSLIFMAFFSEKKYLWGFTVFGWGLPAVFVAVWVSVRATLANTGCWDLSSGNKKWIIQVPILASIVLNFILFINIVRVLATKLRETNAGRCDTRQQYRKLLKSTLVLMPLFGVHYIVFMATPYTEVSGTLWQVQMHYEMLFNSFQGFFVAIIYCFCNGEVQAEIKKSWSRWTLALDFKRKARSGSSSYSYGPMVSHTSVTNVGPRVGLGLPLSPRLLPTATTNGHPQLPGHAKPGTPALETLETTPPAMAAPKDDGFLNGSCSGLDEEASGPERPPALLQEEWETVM

[2] = biological target: T1, human PTH-1 receptor; test: radioligand binding, HKRK B7 cells (human PTH-1 receptor)
[3] = biological target: T1, human PTH-1 receptor; test: cell-based or functional assay; remark: listed apart in the source
[4] = biological target: T1, human PTH-1 receptor; test: cell-based or functional assay; remark: listed apart in the source
[5] = biological target: T2, rat PTH-1 receptor (rat, UniProt P25961 27-591); test: radioligand competition, EW5 cells (rat PTH-1 receptor)
T2 construct: whole, on cells; recombinant receptor on cells; also called rat PTH/PTHrP receptor
T2 sequence (looked up): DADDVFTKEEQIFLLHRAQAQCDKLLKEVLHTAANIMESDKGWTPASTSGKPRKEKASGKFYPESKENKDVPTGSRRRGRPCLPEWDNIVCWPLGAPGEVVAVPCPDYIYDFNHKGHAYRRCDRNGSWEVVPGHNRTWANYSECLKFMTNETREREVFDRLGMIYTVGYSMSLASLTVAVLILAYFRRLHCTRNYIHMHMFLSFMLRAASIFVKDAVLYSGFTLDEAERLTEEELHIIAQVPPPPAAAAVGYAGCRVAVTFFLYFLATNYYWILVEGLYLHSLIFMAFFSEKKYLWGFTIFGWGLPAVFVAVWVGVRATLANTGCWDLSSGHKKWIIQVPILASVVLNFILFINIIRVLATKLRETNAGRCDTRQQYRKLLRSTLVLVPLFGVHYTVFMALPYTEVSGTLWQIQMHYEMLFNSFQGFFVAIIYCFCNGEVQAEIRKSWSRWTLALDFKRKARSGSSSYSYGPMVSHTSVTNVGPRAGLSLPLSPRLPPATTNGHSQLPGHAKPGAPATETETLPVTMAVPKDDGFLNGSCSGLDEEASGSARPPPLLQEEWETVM
Description: (§1) Cell layers were washed three times before solubilization for determination of cell-associated radioactivity.

[6] = biological target: T1, human PTH-1 receptor; test: radioligand competition, HKRK B7 cells (human PTH-1 receptor)
Description: as §1

[7] = biological target: T2, rat PTH-1 receptor; test: cell-based or functional assay
[8] = biological target: T2, rat PTH-1 receptor; test: radioligand competition, EW5 cells (rat) against HKRK B7 cells (human)
Description: as §1

PLC activation, percent of basal at 1000 nM peptide, HKRK B7 cells (percent of basal) [1]: 101
Molecule: desamino-hPTHrP(1-36) (from UniProt P12272 37-72) (peptide)

PLC Activity (% Basal), 1000 nM peptide, transfected HEK-293 cells [1]: 106 % Basal
Molecule: desamino[Ala^1]hPTH-(1-34) (from UniProt P01270 32-65) (peptide)

cell-associated radioactivity, basal (no competitor) [2]: 25500 cpm/well
Molecule: ^125I-[Nle^8,21, Tyr^34]rat PTH-(1-34) (from UniProt P04089 32-65) (peptide)

PLC activity, percent of basal at 1000 nM peptide (percent of basal) [1]: 105
Molecule: [Tyr^0]hPTH-(1-34) (from UniProt P01270 32-65) (peptide)

PLC Activity (% Basal), 1000 nM peptide, transfected HEK-293 cells [1]: 108 % Basal
Molecule: desamino[Gly^1]hPTH-(1-34) (from UniProt P01270 32-65) (peptide)

PLC activation, percent of basal at 1000 nM peptide, HKRK B7 cells (percent of basal) [1]: 178
Molecule: hPTHrP(1-36) (from UniProt P12272 37-72) (peptide)

PLC Activity (% Basal), 1000 nM peptide, transfected HEK-293 cells [3]: 88 % Basal
B1: hPTH-(2-34) (peptide)
peptide: VSEIQLMHNLGKHLNSMERVEWLRKKLQDVHNY-NH2

EC50 of PLC activation (IP3 formation), HKRK B7 cells [4]: 1000 nM
B2: hPTH-(1-29) (peptide, UniProt P01270 32-60, looked up)
peptide: SVSEIQLMHNLGKHLNSMERVEWLRKKLQ-NH2

fold improvement of EC50 for AC activation over hPTH-(1-27) [4]: 10 fold
B3: [Ala^1,Arg^19]hPTH-(1-27) (peptide)
peptide: AVSEIQLMHNLGKHLNSMRRVEWLRKK-NH2

EC50 of AC activation, HKRK B7 cells [4]: 100 nM
fold loss of AC activity on removal of Leu^28 [4]: ~100 fold
PLC Activity (% Basal), 1000 nM peptide, transfected HEK-293 cells [3]: 95 % Basal
B4: hPTH-(1-27) (peptide)
peptide: SVSEIQLMHNLGKHLNSMERVEWLRKK-NH2

fold enhancement of binding affinity by the Gly^1 substitution (against hPTH-(1-28)) [5]: 2 fold
fold impairment of binding by the Gly^1 substitution (against hPTH-(1-28)) [6]: ~3 fold
B5: [Gly^1]hPTH-(1-28) (peptide)
peptide: GVSEIQLMHNLGKHLNSMERVEWLRKKL-NH2
notes: Analog of hPTH-(1-28)

fold reduction of PLC potency, HKRK B7 cells [4]: ~100 fold
selectivity for activation of AC (vs. PLC), relative to hPTH-(1-34) [4]: > 40 fold
fold impairment of EC50 for AC relative to hPTH-(1-34), EW5 cells [7]: ~6 fold
selectivity for AC vs. PLC [7]: > 10 fold
fold enhancement of binding affinity by the Gly^1 substitution (against [Arg^19]hPTH-(1-28)) [5]: 2 fold
fold impairment of binding affinity relative to hPTH-(1-34) [5]: ~6 fold
fold lower binding affinity than hPTH-(1-34) [5]: 7 fold
fold impairment of binding by the Gly^1 substitution (against [Arg^19]hPTH-(1-28)) [6]: ~3 fold
fold improvement in binding affinity over [Gly^1]hPTH-(1-28) [6]: 5 fold
fold lower binding affinity than hPTH(1-34) [6]: 30 fold
fold reduction of binding relative to hPTH-(1-34) [6]: ~40 fold
fold greater binding affinity than for the human PTH-1 receptor [8]: 10 fold
B6: [Gly^1,Arg^19]hPTH-(1-28) (peptide)
peptide: GVSEIQLMHNLGKHLNSMRRVEWLRKKL-NH2
notes: Analog of hPTH-(1-28)

EC50 of AC activation, HKRK B7 cells [4]: 1 nM
EC50 of PLC activation, HKRK B7 cells [4]: 6000 nM
fold loss of PLC potency against hPTH-(1-29) [4]: ~5 fold
PLC Activity (% Basal), 1000 nM peptide, transfected HEK-293 cells [3]: 305 % Basal
binding result [5]: binds
IC50 [6]: 1000 nM
B7: hPTH-(1-28) (peptide)
peptide: SVSEIQLMHNLGKHLNSMERVEWLRKKL-NH2

EC50 for PLC activation, HKRK B7 cells [4]: 1000 nM
B8: [Ala^1]hPTH-(1-28) (peptide)
peptide: AVSEIQLMHNLGKHLNSMERVEWLRKKL-NH2

EC50 of PLC activation, HKRK B7 cells [4]: 300 nM
IC50 [6]: 100 nM
B9: [Arg^19]hPTH-(1-28) (peptide)
peptide: SVSEIQLMHNLGKHLNSMRRVEWLRKKL-NH2
notes: Analog of hPTH-(1-28)

EC50 for PLC activation, HKRK B7 cells [4]: 200 nM
fold improvement of EC50 for PLC activation over [Ala^1]hPTH-(1-28) [4]: 5 fold
B10: [Ala^1,Arg^19]hPTH-(1-28) (peptide)
peptide: AVSEIQLMHNLGKHLNSMRRVEWLRKKL-NH2

PLC Activity (% Basal), 1000 nM peptide, transfected HEK-293 cells [3]: 854 % Basal
B11: hPTH-(1-34) (peptide)
peptide: SVSEIQLMHNLGKHLNSMERVEWLRKKLQDVHNY-NH2

fold loss of AC potency against hPTH-(1-27) [4]: 10 fold
B12: hPTH-(1-26) (peptide)
peptide: SVSEIQLMHNLGKHLNSMERVEWLRK-NH2
